Results: IntAct's records for PubMed 24469404

B1: TERF1-interacting nuclear factor 2 (Mus musculus), Q9QXG9 (parent)
chain: MAPPPGVGPASLRFAAAASWLVVRRRRVEHFPKVVEFLQSLRAAAPGLVCYRHHERLCMSLKAKVVVELILQARPWDQVLNALKHHFPAESRTTKEDRKLLEARENFCLLVKHLSEDPPSSLQELEQDYGESFLVAMEKLLFEYLCQLEKALPPVRAQELQDALSWSQPGSFITSSVALHQYGMDMGWTFPESSTSGSGNLIEPMEESPHQQTRPAFHSPLPKAKLGPHQPASLEHPEHLAGHRFNLAPLGKRKSRSHWTSAKACHKERPTVMLLPFRNMGLPAQDLSNPKSREEPGAASAASVGTEPVCTEEAKTPSRPLGKRALEETPPDSPAASRRTV
partner: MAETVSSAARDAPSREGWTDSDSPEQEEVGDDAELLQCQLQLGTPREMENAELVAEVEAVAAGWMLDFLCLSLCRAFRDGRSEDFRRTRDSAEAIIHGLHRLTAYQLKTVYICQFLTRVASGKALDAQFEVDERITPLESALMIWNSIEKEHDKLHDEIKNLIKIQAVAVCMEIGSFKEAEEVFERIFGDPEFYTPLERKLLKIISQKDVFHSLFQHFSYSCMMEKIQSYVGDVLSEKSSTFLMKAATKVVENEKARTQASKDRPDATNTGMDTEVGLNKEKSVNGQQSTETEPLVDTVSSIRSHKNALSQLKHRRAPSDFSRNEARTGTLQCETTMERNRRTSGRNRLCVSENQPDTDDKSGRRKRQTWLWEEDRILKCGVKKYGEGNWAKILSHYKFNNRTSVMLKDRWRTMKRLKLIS

Variants of: B1
Conditions: with terf1_mouse Terf1, P70371

effect of a mutation on the interaction	Variant
disrupting interaction	MAPPPGVGPASLRFAAAASWLVVRRRRVEHFPKVVEFLQSLRAAAPGLVCYRHHERLCMSLKAKVVVELILQARPWDQVLNALKHHFPAESRTTKEDRKLLEARENFCLLVKHLSEDPPSSLQELEQDYGESFLVAMEKLLFEYLCQLEKALPPVRAQELQDALSWSQPGSFITSSVALHQYGMDMGWTFPESSTSGSGNLIEPMEESPHQQTRPAFHSPLPKAKLGPHQPASLEHPEHLAGHRFNEAPLGKRKSRSHWTSAKACHKERPTVMLLPFRNMGLPAQDLSNPKSREEPGAASAASVGTEPVCTEEAKTPSRPLGKRALEETPPDSPAASRRTV [L247E]
